Sequences and labels used below:
T1: EsCas13d, nuclease-dead (Eubacterium siraeum, UniProt B0MS50, R295A;H300A;R849A;H854A)
T1 sequence: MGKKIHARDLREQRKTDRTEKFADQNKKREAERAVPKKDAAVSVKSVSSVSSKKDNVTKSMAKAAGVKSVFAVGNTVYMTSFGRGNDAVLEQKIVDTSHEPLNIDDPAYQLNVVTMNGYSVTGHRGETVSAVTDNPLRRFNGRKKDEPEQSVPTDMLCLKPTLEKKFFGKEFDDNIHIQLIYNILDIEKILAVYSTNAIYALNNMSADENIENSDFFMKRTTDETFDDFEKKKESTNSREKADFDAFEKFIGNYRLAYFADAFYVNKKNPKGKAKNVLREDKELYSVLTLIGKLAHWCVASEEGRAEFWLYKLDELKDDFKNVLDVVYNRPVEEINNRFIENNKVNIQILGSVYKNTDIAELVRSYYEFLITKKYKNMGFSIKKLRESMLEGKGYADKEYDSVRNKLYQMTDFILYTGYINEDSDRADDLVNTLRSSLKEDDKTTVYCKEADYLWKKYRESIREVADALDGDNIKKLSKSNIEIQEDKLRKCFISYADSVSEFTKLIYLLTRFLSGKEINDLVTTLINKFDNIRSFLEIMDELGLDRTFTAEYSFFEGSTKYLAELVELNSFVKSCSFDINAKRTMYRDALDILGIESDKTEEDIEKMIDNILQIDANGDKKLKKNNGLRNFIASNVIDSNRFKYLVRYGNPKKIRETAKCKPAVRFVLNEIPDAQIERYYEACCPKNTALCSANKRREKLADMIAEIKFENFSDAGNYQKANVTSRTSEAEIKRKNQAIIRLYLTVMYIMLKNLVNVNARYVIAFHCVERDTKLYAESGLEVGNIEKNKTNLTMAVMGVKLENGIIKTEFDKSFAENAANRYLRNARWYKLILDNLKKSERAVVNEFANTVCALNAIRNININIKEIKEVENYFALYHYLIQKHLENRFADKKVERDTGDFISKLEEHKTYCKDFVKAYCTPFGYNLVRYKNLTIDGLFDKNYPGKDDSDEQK

B1: target 1 insU 3' of 9,insC 3' of 3 (mixed)
RNA 1: CACCCGUGCAAAAAUGCAGGGGUCUAAAACUGAGCGGAUAACCUCUCUAUGG
RNA 2: GGGAAUGGAUCCACAUCUACGAAUUCGUACCAUAGAGAGGUUAUUCCGCUCCACCGAGAUCGGAAGAGCACACGU
B2: target 1 G12A,G13A (mixed)
RNA 1: CACCCGUGCAAAAAUGCAGGGGUCUAAAACUGAGCGGAUAACCUCUCUAUGG
RNA 2: GGGAAUGGAUCCACAUCUACGAAUUCGUACCAUAGAGAAAUUAUCCGCUCACCGAGAUCGGAAGAGCACACGU
B3: target 1 C4A,A18C (mixed)
RNA 1: CACCCGUGCAAAAAUGCAGGGGUCUAAAACUGAGCGGAUAACCUCUCUAUGG
RNA 2: GGGAAUGGAUCCACAUCUACGAAUUCGUACCAUCGAGAGGUUAUCCGAUCACCGAGAUCGGAAGAGCACACGU
B4: target 1 G15C,C21U (mixed)
RNA 1: CACCCGUGCAAAAAUGCAGGGGUCUAAAACUGAGCGGAUAACCUCUCUAUGG
RNA 2: GGGAAUGGAUCCACAUCUACGAAUUCGUACUAUAGACAGGUUAUCCGCUCACCGAGAUCGGAAGAGCACACGU
B5: target 1 insG 3' of 10 (mixed)
RNA 1: CACCCGUGCAAAAAUGCAGGGGUCUAAAACUGAGCGGAUAACCUCUCUAUGG
RNA 2: GGGAAUGGAUCCACAUCUACGAAUUCGUACCAUAGAGAGGUUGAUCCGCUCACCGAGAUCGGAAGAGCACACGU
B6: target 1 U11G,G17U (mixed)
RNA 1: CACCCGUGCAAAAAUGCAGGGGUCUAAAACUGAGCGGAUAACCUCUCUAUGG
RNA 2: GGGAAUGGAUCCACAUCUACGAAUUCGUACCAUAUAGAGGGUAUCCGCUCACCGAGAUCGGAAGAGCACACGU
B7: target 1 insA 3' of 22,insG 3' of 16 (mixed)
RNA 1: CACCCGUGCAAAAAUGCAGGGGUCUAAAACUGAGCGGAUAACCUCUCUAUGG
RNA 2: GGGAAUGGAUCCACAUCUACGAAUUCGUACACAUAGAGGAGGUUAUCCGCUCACCGAGAUCGGAAGAGCACACGU
B8: target 1 insG 3' of 8,insA 3' of 3 (mixed)
RNA 1: CACCCGUGCAAAAAUGCAGGGGUCUAAAACUGAGCGGAUAACCUCUCUAUGG
RNA 2: GGGAAUGGAUCCACAUCUACGAAUUCGUACCAUAGAGAGGUUAUGCCGCUACACCGAGAUCGGAAGAGCACACGU
B9: target 1 insG 3' of 19,insA 3' of 5 (mixed)
RNA 1: CACCCGUGCAAAAAUGCAGGGGUCUAAAACUGAGCGGAUAACCUCUCUAUGG
RNA 2: GGGAAUGGAUCCACAUCUACGAAUUCGUACCAUGAGAGAGGUUAUCCGACUCACCGAGAUCGGAAGAGCACACGU
B10: target 1 insG 3' of 20,insA 3' of 19 (mixed)
RNA 1: CACCCGUGCAAAAAUGCAGGGGUCUAAAACUGAGCGGAUAACCUCUCUAUGG
RNA 2: GGGAAUGGAUCCACAUCUACGAAUUCGUACCAGUAAGAGAGGUUAUCCGCUCACCGAGAUCGGAAGAGCACACGU
B11: target 1 C6U,C7G (mixed)
RNA 1: CACCCGUGCAAAAAUGCAGGGGUCUAAAACUGAGCGGAUAACCUCUCUAUGG
RNA 2: GGGAAUGGAUCCACAUCUACGAAUUCGUACCAUAGAGAGGUUAUGUGCUCACCGAGAUCGGAAGAGCACACGU
B12: target 1 C2G,A16G (mixed)
RNA 1: CACCCGUGCAAAAAUGCAGGGGUCUAAAACUGAGCGGAUAACCUCUCUAUGG
RNA 2: GGGAAUGGAUCCACAUCUACGAAUUCGUACCAUAGGGAGGUUAUCCGCUGACCGAGAUCGGAAGAGCACACGU
B13: target 1 insU 3' of 20,insG 3' of 18 (mixed)
RNA 1: CACCCGUGCAAAAAUGCAGGGGUCUAAAACUGAGCGGAUAACCUCUCUAUGG
RNA 2: GGGAAUGGAUCCACAUCUACGAAUUCGUACCAUUAGGAGAGGUUAUCCGCUCACCGAGAUCGGAAGAGCACACGU
B14: target 1 insA 3' of 11,insU 3' of 5 (mixed)
RNA 1: CACCCGUGCAAAAAUGCAGGGGUCUAAAACUGAGCGGAUAACCUCUCUAUGG
RNA 2: GGGAAUGGAUCCACAUCUACGAAUUCGUACCAUAGAGAGGUAUAUCCGUCUCACCGAGAUCGGAAGAGCACACGU
B15: target 1 C4U,U11C (mixed)
RNA 1: CACCCGUGCAAAAAUGCAGGGGUCUAAAACUGAGCGGAUAACCUCUCUAUGG
RNA 2: GGGAAUGGAUCCACAUCUACGAAUUCGUACCAUAGAGAGGCUAUCCGUUCACCGAGAUCGGAAGAGCACACGU
B16: target 1 complement block 2-14 (mixed)
RNA 1: CACCCGUGCAAAAAUGCAGGGGUCUAAAACUGAGCGGAUAACCUCUCUAUGG
RNA 2: GGGAAUGGAUCCACAUCUACGAAUUCGUACCAUAGAGUCCAAUAGGCGAGACCGAGAUCGGAAGAGCACACGU
B17: target 1 G5A,A9U (mixed)
RNA 1: CACCCGUGCAAAAAUGCAGGGGUCUAAAACUGAGCGGAUAACCUCUCUAUGG
RNA 2: GGGAAUGGAUCCACAUCUACGAAUUCGUACCAUAGAGAGGUUUUCCACUCACCGAGAUCGGAAGAGCACACGU
B18: target 1 A1C,C6A (mixed)
RNA 1: CACCCGUGCAAAAAUGCAGGGGUCUAAAACUGAGCGGAUAACCUCUCUAUGG
RNA 2: GGGAAUGGAUCCACAUCUACGAAUUCGUACCAUAGAGAGGUUAUCAGCUCCCCGAGAUCGGAAGAGCACACGU
B19: target 1 C6U,U19G (mixed)
RNA 1: CACCCGUGCAAAAAUGCAGGGGUCUAAAACUGAGCGGAUAACCUCUCUAUGG
RNA 2: GGGAAUGGAUCCACAUCUACGAAUUCGUACCAGAGAGAGGUUAUCUGCUCACCGAGAUCGGAAGAGCACACGU
B20: target 1 insA 3' of 19 (mixed)
RNA 1: CACCCGUGCAAAAAUGCAGGGGUCUAAAACUGAGCGGAUAACCUCUCUAUGG
RNA 2: GGGAAUGGAUCCACAUCUACGAAUUCGUACCAUAAGAGAGGUUAUCCGCUCACCGAGAUCGGAAGAGCACACGU
B21: target 1 insU 3' of 21,insA 3' of 21 (mixed)
RNA 1: CACCCGUGCAAAAAUGCAGGGGUCUAAAACUGAGCGGAUAACCUCUCUAUGG
RNA 2: GGGAAUGGAUCCACAUCUACGAAUUCGUACCUAAUAGAGAGGUUAUCCGCUCACCGAGAUCGGAAGAGCACACGU
B22: target 1 insG 3' of 9,insG 3' of 9 (mixed)
RNA 1: CACCCGUGCAAAAAUGCAGGGGUCUAAAACUGAGCGGAUAACCUCUCUAUGG
RNA 2: GGGAAUGGAUCCACAUCUACGAAUUCGUACCAUAGAGAGGUUAGGUCCGCUCACCGAGAUCGGAAGAGCACACGU
B23: target 1 del14,del16 (mixed)
RNA 1: CACCCGUGCAAAAAUGCAGGGGUCUAAAACUGAGCGGAUAACCUCUCUAUGG
RNA 2: GGGAAUGGAUCCACAUCUACGAAUUCGUACCAUAGGGGUUAUCCGCUCACCGAGAUCGGAAGAGCACACGU
B24: target 1 insG 3' of 20,insA 3' of 8 (mixed)
RNA 1: CACCCGUGCAAAAAUGCAGGGGUCUAAAACUGAGCGGAUAACCUCUCUAUGG
RNA 2: GGGAAUGGAUCCACAUCUACGAAUUCGUACCAGUAGAGAGGUUAUACCGCUCACCGAGAUCGGAAGAGCACACGU
B25: target 1 insU 3' of 14,insA 3' of 11 (mixed)
RNA 1: CACCCGUGCAAAAAUGCAGGGGUCUAAAACUGAGCGGAUAACCUCUCUAUGG
RNA 2: GGGAAUGGAUCCACAUCUACGAAUUCGUACCAUAGAGAUGGUAUAUCCGCUCACCGAGAUCGGAAGAGCACACGU
B26: target 1 insU 3' of 13,insU 3' of 6 (mixed)
RNA 1: CACCCGUGCAAAAAUGCAGGGGUCUAAAACUGAGCGGAUAACCUCUCUAUGG
RNA 2: GGGAAUGGAUCCACAUCUACGAAUUCGUACCAUAGAGAGUGUUAUCCUGCUCACCGAGAUCGGAAGAGCACACGU
B27: target 1 insC 3' of 19,insA 3' of 11 (mixed)
RNA 1: CACCCGUGCAAAAAUGCAGGGGUCUAAAACUGAGCGGAUAACCUCUCUAUGG
RNA 2: GGGAAUGGAUCCACAUCUACGAAUUCGUACCAUCAGAGAGGUAUAUCCGCUCACCGAGAUCGGAAGAGCACACGU

Results on 27 molecules are retold here after PMC10786891, “Massively parallel profiling of RNA-targeting CRISPR-Cas13d”.

The target of the series is T1, EsCas13d, nuclease-dead. The experiment in a line: crRNA (strand 1, pre-loaded); Mg2+; 40 mM Tris-HCl pH 7.5, 150 mM NaCl, 6 mM MgCl2, 1 mM DTT, 0.1% Tween-20, 0.2 mg/ml BSA; 25 C; 10 min per concentration, then washed. The note with it: tags: His6-TwinStrep-SUMO cleaved; N-terminal SNAP kept (SNAP-Surface 488); label: 3' end held by stalled T7 RNA polymerase.
One may read the Kd as the constant that tells how readily two partners part at equilibrium. Higher therefore signals a looser complex. As for B1, the affinity, expressed as Kd, was 16.3 ± 1.1 nM.
In turn, B2 yielded a Kd of 5.2 ± 0.23 nM.
To B3 belongs 63 ± 22 nM; to B4, 9.4 ± 0.7 nM; to B5, 23 ± 1.7 nM.
To B6 belongs 47 ± 5 nM; to B7, 26.3 ± 2.6 nM; to B8, 8.3 ± 0.5 nM.
Under B9 stands 42 ± 5 nM; under B10, 45 ± 7 nM; under B11, 7.9 ± 0.8 nM.
In turn, B12 had a Kd of 33.1 ± 1.6 nM.
To B13 belongs 99 ± 21 nM; to B14, 18.7 ± 1.5 nM; to B15, 27 ± 5 nM.
Under B16 stands 71 ± 17 nM; under B17, 29.7 ± 1.8 nM.
To B18 belongs 7 ± 0.5 nM; to B19, 48 ± 11 nM.
In turn, B20 gave a Kd of 15.9 ± 0.7 nM. This Kd lies about 3-fold lower than the previous one.
To B21 belongs 22.4 ± 3.3 nM; to B22, 16.2 ± 0.9 nM.
B23 had a Kd of 84 ± 17 nM.
To B24 belongs 60 ± 7 nM.
To B25 belongs 54 ± 10 nM; to B26, 17.9 ± 1.3 nM; to B27, 98 ± 16 nM.
